Measurements taken from patent publication US20230203108.

Target: T1, Recombinant Human Serpin B9/SERPINB9 (C-6His) (Novoprotein, CJ32), P50453
T1 chain: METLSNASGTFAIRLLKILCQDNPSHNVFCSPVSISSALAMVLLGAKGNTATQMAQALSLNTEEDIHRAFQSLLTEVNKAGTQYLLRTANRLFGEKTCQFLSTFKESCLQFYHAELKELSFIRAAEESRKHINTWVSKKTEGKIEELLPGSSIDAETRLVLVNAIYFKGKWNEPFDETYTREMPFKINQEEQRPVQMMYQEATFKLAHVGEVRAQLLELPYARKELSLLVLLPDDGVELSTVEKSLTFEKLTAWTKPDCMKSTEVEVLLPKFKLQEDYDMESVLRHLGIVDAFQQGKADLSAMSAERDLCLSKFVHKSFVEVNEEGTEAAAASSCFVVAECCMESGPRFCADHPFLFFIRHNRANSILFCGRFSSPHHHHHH

Protein | protease activity (cleavage of Ac-IEPD-pNA, absorbance at 405 nm) after 1 h at 37 C with 0.5 uM PI-9, relative to wild-type granzyme B
granzyme B variant K44F, L46E, K155P, K172L, S175I, K200R (protein) IIGGHEAKPHSRPYMAYLMIWDQFSEKRCGGFLIRDDFVLTAAHCWGSSINVTLGAHNIKEQEPTQQFIPVKRPIPHPAYNPKNFSNDIMLLQLERKAKRTRAVQPLRLPSNKAQVKPGQTCSVAGWGQTAPLGPHSHTLQEVKMTVQEDRLCEIDLRHYYDSTIELCVGDPEIKKTSFRGDSGGPLVCNKVAQGIVSYGRNNGMPPRACTKVSSFVHWIKKTMKRY | the variants maintained high protease activity even in the presence of inhibitors
granzyme B variant K44L, R48E, K155P, K172L, S175I, K200R (protein) IIGGHEAKPHSRPYMAYLMIWDQLSLKECGGFLIRDDFVLTAAHCWGSSINVTLGAHNIKEQEPTQQFIPVKRPIPHPAYNPKNFSNDIMLLQLERKAKRTRAVQPLRLPSNKAQVKPGQTCSVAGWGQTAPLGPHSHTLQEVKMTVQEDRLCEIDLRHYYDSTIELCVGDPEIKKTSFRGDSGGPLVCNKVAQGIVSYGRNNGMPPRACTKVSSFVHWIKKTMKRY | the variants maintained high protease activity even in the presence of inhibitors
granzyme B variant K44L, L46F, K155P, K172L, S175I, K200R (protein) IIGGHEAKPHSRPYMAYLMIWDQLSFKRCGGFLIRDDFVLTAAHCWGSSINVTLGAHNIKEQEPTQQFIPVKRPIPHPAYNPKNFSNDIMLLQLERKAKRTRAVQPLRLPSNKAQVKPGQTCSVAGWGQTAPLGPHSHTLQEVKMTVQEDRLCEIDLRHYYDSTIELCVGDPEIKKTSFRGDSGGPLVCNKVAQGIVSYGRNNGMPPRACTKVSSFVHWIKKTMKRY | the variants maintained high protease activity even in the presence of inhibitors
granzyme B variant K44L, L46E, K155P, K172L, S175I, K200R (protein) IIGGHEAKPHSRPYMAYLMIWDQLSEKRCGGFLIRDDFVLTAAHCWGSSINVTLGAHNIKEQEPTQQFIPVKRPIPHPAYNPKNFSNDIMLLQLERKAKRTRAVQPLRLPSNKAQVKPGQTCSVAGWGQTAPLGPHSHTLQEVKMTVQEDRLCEIDLRHYYDSTIELCVGDPEIKKTSFRGDSGGPLVCNKVAQGIVSYGRNNGMPPRACTKVSSFVHWIKKTMKRY | the variants maintained high protease activity even in the presence of inhibitors
granzyme B variant K44F, L46Q, K155P, K172L, S175I, K200R (protein) IIGGHEAKPHSRPYMAYLMIWDQFSQKRCGGFLIRDDFVLTAAHCWGSSINVTLGAHNIKEQEPTQQFIPVKRPIPHPAYNPKNFSNDIMLLQLERKAKRTRAVQPLRLPSNKAQVKPGQTCSVAGWGQTAPLGPHSHTLQEVKMTVQEDRLCEIDLRHYYDSTIELCVGDPEIKKTSFRGDSGGPLVCNKVAQGIVSYGRNNGMPPRACTKVSSFVHWIKKTMKRY | the variants maintained high protease activity even in the presence of inhibitors
granzyme B variant K44L, L46I, K155P, K172L, S175I, K200R (protein) IIGGHEAKPHSRPYMAYLMIWDQLSIKRCGGFLIRDDFVLTAAHCWGSSINVTLGAHNIKEQEPTQQFIPVKRPIPHPAYNPKNFSNDIMLLQLERKAKRTRAVQPLRLPSNKAQVKPGQTCSVAGWGQTAPLGPHSHTLQEVKMTVQEDRLCEIDLRHYYDSTIELCVGDPEIKKTSFRGDSGGPLVCNKVAQGIVSYGRNNGMPPRACTKVSSFVHWIKKTMKRY | the variants maintained high protease activity even in the presence of inhibitors
granzyme B variant K44F, R48K, K155P, K172L, S175I, K200R (protein) IIGGHEAKPHSRPYMAYLMIWDQFSLKKCGGFLIRDDFVLTAAHCWGSSINVTLGAHNIKEQEPTQQFIPVKRPIPHPAYNPKNFSNDIMLLQLERKAKRTRAVQPLRLPSNKAQVKPGQTCSVAGWGQTAPLGPHSHTLQEVKMTVQEDRLCEIDLRHYYDSTIELCVGDPEIKKTSFRGDSGGPLVCNKVAQGIVSYGRNNGMPPRACTKVSSFVHWIKKTMKRY | the variants maintained high protease activity even in the presence of inhibitors
granzyme B variant K44L, L46Q, K155P, K172L, S175I, K200R (protein) IIGGHEAKPHSRPYMAYLMIWDQLSQKRCGGFLIRDDFVLTAAHCWGSSINVTLGAHNIKEQEPTQQFIPVKRPIPHPAYNPKNFSNDIMLLQLERKAKRTRAVQPLRLPSNKAQVKPGQTCSVAGWGQTAPLGPHSHTLQEVKMTVQEDRLCEIDLRHYYDSTIELCVGDPEIKKTSFRGDSGGPLVCNKVAQGIVSYGRNNGMPPRACTKVSSFVHWIKKTMKRY | the variants maintained high protease activity even in the presence of inhibitors
granzyme B variant K44F, L46I, K155P, K172L, S175I, K200R (protein) IIGGHEAKPHSRPYMAYLMIWDQFSIKRCGGFLIRDDFVLTAAHCWGSSINVTLGAHNIKEQEPTQQFIPVKRPIPHPAYNPKNFSNDIMLLQLERKAKRTRAVQPLRLPSNKAQVKPGQTCSVAGWGQTAPLGPHSHTLQEVKMTVQEDRLCEIDLRHYYDSTIELCVGDPEIKKTSFRGDSGGPLVCNKVAQGIVSYGRNNGMPPRACTKVSSFVHWIKKTMKRY | the variants maintained high protease activity even in the presence of inhibitors
granzyme B variant K44F, R48E, K155P, K172L, S175I, K200R (protein) IIGGHEAKPHSRPYMAYLMIWDQFSLKECGGFLIRDDFVLTAAHCWGSSINVTLGAHNIKEQEPTQQFIPVKRPIPHPAYNPKNFSNDIMLLQLERKAKRTRAVQPLRLPSNKAQVKPGQTCSVAGWGQTAPLGPHSHTLQEVKMTVQEDRLCEIDLRHYYDSTIELCVGDPEIKKTSFRGDSGGPLVCNKVAQGIVSYGRNNGMPPRACTKVSSFVHWIKKTMKRY | the variants maintained high protease activity even in the presence of inhibitors
granzyme B variant K44F, L46F, K155P, K172L, S175I, K200R (protein) IIGGHEAKPHSRPYMAYLMIWDQFSFKRCGGFLIRDDFVLTAAHCWGSSINVTLGAHNIKEQEPTQQFIPVKRPIPHPAYNPKNFSNDIMLLQLERKAKRTRAVQPLRLPSNKAQVKPGQTCSVAGWGQTAPLGPHSHTLQEVKMTVQEDRLCEIDLRHYYDSTIELCVGDPEIKKTSFRGDSGGPLVCNKVAQGIVSYGRNNGMPPRACTKVSSFVHWIKKTMKRY | the variants maintained high protease activity even in the presence of inhibitors
granzyme B variant K44L, R48K, K155P, K172L, S175I, K200R (protein) IIGGHEAKPHSRPYMAYLMIWDQLSLKKCGGFLIRDDFVLTAAHCWGSSINVTLGAHNIKEQEPTQQFIPVKRPIPHPAYNPKNFSNDIMLLQLERKAKRTRAVQPLRLPSNKAQVKPGQTCSVAGWGQTAPLGPHSHTLQEVKMTVQEDRLCEIDLRHYYDSTIELCVGDPEIKKTSFRGDSGGPLVCNKVAQGIVSYGRNNGMPPRACTKVSSFVHWIKKTMKRY | the variants maintained high protease activity even in the presence of inhibitors
